{"source": "paper PMC5553161", "target": "VAP-B (human (endogenous in Huh7)) (UniProt O95292)", "sequence (O95292 whole entry)": "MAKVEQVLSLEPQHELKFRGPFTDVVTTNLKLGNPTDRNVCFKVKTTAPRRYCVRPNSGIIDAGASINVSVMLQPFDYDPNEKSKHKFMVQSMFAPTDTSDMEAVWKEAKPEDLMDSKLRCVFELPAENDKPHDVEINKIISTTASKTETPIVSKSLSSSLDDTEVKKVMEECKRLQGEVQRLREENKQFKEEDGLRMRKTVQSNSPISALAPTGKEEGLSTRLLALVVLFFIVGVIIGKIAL", "test": "co-IP; lysates of Huh7 cells stably harboring wild-type, S225D or S225A SGRs immunoprecipitated with antibodies to NAP1L1, Bin1, VAP-A or VAP-B; Western blot for NS5A, quantified (n = 3)"}
{"substance": "One-Strep-tagged (OST) NS5A S225A of hepatitis C virus JFH-1 (genotype 2a) (natural protein)", "values": [{"measurement": "reduction in the level bound, against wild type", "value": 50, "unit": "%"}]}
